Experimental data taken from paper PMC11310207.

Tests used:
Test in all cases: fluorescence polarisation
[1] = molecular target: FAM-…, N-terminally FAM-labeled Dyn A (2–13)
[2] = molecular target: FAM-…, N-terminally FAM-labeled Dyn A (2–17)
[3] = molecular target: FAM-GGFLRRI, N-terminally FAM-labeled Dyn A (2–8)

## rNln (Met37–Ser704) E475A, C-terminal 6xHis-tag, catalytically inactive mutant (from UniProt P42676 37-704) (enzyme)
[1]
  Kd: 4.69 µM
[2]
  Kd: 3.26 µM
[3]
  Kd: 23.7 µM
